Where a SMILES comes first, the peptide text is derived from it. Where no end group is shown, it is not given here. [ ]: non-standard residue; d: D form. pY = N[C@@H](Cc1ccc(OP(=O)(O)O)cc1)C(=O)O

Experimental findings from article PMC3561853 (Journal of Cell Science, 2012) are described below.

T1: SH2-SH3B fragment of Vav1 (669–845) (Mus musculus, UniProt P27870)
T1 sequence (P27870 669-845): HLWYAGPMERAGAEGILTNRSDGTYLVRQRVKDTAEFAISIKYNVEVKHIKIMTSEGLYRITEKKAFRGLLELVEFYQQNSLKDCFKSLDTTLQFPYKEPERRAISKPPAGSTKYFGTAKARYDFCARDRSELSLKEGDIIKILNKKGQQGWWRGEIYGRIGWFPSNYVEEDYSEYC

T2: SH3A-SH2 fragment of Vav1 (596–771) (Mus musculus, UniProt P27870)
T2 sequence (P27870 596-771): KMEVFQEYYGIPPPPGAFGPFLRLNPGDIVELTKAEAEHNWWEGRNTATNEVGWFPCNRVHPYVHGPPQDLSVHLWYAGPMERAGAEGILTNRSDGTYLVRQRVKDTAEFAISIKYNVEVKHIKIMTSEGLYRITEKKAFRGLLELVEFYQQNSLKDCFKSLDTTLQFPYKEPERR

T3: SH3A-SH2 fragment of Vav1 (596-771) (mouse, UniProt P27870 596-771)
T3 sequence (looked up): T2 sequence (P27870 596-771)

B1: SH3A-SH2-SH3B fragment of Vav1 (596-845) (domain or fragment, mouse, UniProt P27870 596-845, looked up)
chain: KMEVFQEYYGIPPPPGAFGPFLRLNPGDIVELTKAEAEHNWWEGRNTATNEVGWFPCNRVHPYVHGPPQDLSVHLWYAGPMERAGAEGILTNRSDGTYLVRQRVKDTAEFAISIKYNVEVKHIKIMTSEGLYRITEKKAFRGLLELVEFYQQNSLKDCFKSLDTTLQFPYKEPERRAISKPPAGSTKYFGTAKARYDFCARDRSELSLKEGDIIKILNKKGQQGWWRGEIYGRIGWFPSNYVEEDYSEYC
B2: SH2-SH3B fragment of Vav1 (669-845) (domain or fragment, mouse, UniProt P27870 669-845, looked up)
chain: T1 sequence (P27870 669-845)
B3: SH2 domain of Vav1 (669-771) (domain or fragment, mouse, UniProt P27870 669-771, looked up)
chain: HLWYAGPMERAGAEGILTNRSDGTYLVRQRVKDTAEFAISIKYNVEVKHIKIMTSEGLYRITEKKAFRGLLELVEFYQQNSLKDCFKSLDTTLQFPYKEPERR

The target in experiment [1] is T1, SH2-SH3B fragment of Vav1 (669–845). As to the kind of experiment: Isothermal titration calorimetry. It counts as binding. A general note: Isothermal titration calorimetry measures the heat released or taken up as one component is titrated into another.
Experiment [2] concerns the target T2, SH3A-SH2 fragment of Vav1 (596–771). Nature of the experiment: Isothermal titration calorimetry. The format is binding.
Experiment [3] deals with B3. As to the kind of experiment: ITC.
Experiment [4] deals with B1. Nature of the experiment: ITC.
The target in experiment [5] is B2. As to the kind of experiment: ITC.
For experiment [6], the target named is SLP76 2pY peptide (pY112 and pY128) (mouse, phosphotyrosine at Y112 and at Y128 (EDDp…pYESPNE)). As to the kind of experiment: ITC.
Experiment [7] concerns the target T3, SH3A-SH2 fragment of Vav1 (596-771). As to the kind of experiment: ITC.

Take `NC(=O)C[C@H](NC(=O)[C@@H]1CCCN1C(=O)[C@H](CO)NC(=O)[C@H](CCC(=O)O)NC(=O)[C@H](Cc1ccc(OP(=O)(O)O)cc1)NC(=O)[C@H](CC(=O)O)NC(=O)CNC(=O)[C@@H](N)CC(=O)O)C(=O)N[C@@H](CCC(=O)O)C(=O)O` [pY128] (HELM PEPTIDE1{D.G.D.[O=C([C@H](Cc1ccc(OP(=O)(O)O)cc1)N[*:1])[*:2]].E.S.P.N.E}$$$$V2.0): the Kd (as a rule, the free concentration of one partner at which half of the binding sites on the other are occupied at equilibrium, for simple one-to-one binding) in experiment [1] is 1060 nM.

In experiment [2], `NC(=O)C[C@H](NC(=O)[C@@H]1CCCN1C(=O)[C@H](CO)NC(=O)[C@H](CCC(=O)O)NC(=O)[C@H](Cc1ccc(OP(=O)(O)O)cc1)NC(=O)[C@H](CC(=O)O)NC(=O)[C@H](CC(=O)O)NC(=O)[C@@H](N)CCC(=O)O)C(=O)N[C@@H](CC(=O)O)C(=O)O` [pY112] (HELM PEPTIDE1{E.D.D.[O=C([C@H](Cc1ccc(OP(=O)(O)O)cc1)N[*:1])[*:2]].E.S.P.N.D}$$$$V2.0) displayed a Kd of 1060 nM.

For the molecule EDD[pY]ESPND [SLP76 pY112 peptide], the dissociation constant Kd in experiment [3] amounted to 1640 nM; in experiment [4], 1850 nM; in experiment [5], 1320 nM.

Take B1: the stoichiometry N (commonly a count of units in the complex or per binding partner) in experiment [6] was determined as 2.

For the molecule B2, the “stoichiometry N” value in experiment [6] worked out at 2.

On to DGD[pY]ESPNE [SLP76 pY128 peptide], for which the Kd in experiment [4] was 1350 nM; in experiment [7], 1040 nM.

For B3, the “stoichiometry N” value in experiment [6] is 2 SH2 domain:peptide.
